The record followed here is the nanobody polyreactivity screen of Harvey et al. (2022).

A short description of the data set: yeast display, Sf9 membrane polyspecificity reagent, FACS + sequencing; frameworks hold sequencing errors. Summed up:
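Using colony PCR, genes from sorted yeast display clones were amplified, then sequenced on MiSeq at 2 × 250 and filtered by CDR length. The clones had been stained with 10% biotinylated, detergent-solubilized Sf9 membrane reagent for 1 hour at 4 °C and sorted by FACS into low and high (top ~1%) gates on anti-HA and streptavidin fluorescence. Polyreactivity labels come from the gate of origin.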
Regarding “QVQLVESGGGLVQAGGSLRLSCAASGSTISGYAMGWYRQAPGKERELVAAISSGGSTYYADSVKGRFTISRDNAKNTVYLQLNSLKPEDTAVFYCNVARSRYRYRYDYWGQGTQVTVSS”, the “polyreactivity (PSR sort gate)” value is listed as “high polyreactivity”.

Take “QVQLVESGGGLVQAGGSRRLSCAASGRTFQYYAMGCYRQATGKERELVAAINNSGGSTYYSDSVKGRFTISRDNAKNTFYLQMNSLKQEDTAVYYCAAVSYRRHFGPYNYWGQGTQVTVSS”: the “polyreactivity (PSR sort gate)” value was “low polyreactivity”. To “QVQLVESGGGLVQAGGSLRLSCAASGFTLLPNALGWYRQAPGKERELVAAITASGGRTYYADSVKGRFSISRDNAKNTVYLLMKSLKPVDTAVYDCTAGVYYYTPYTRMDYWGQGTQVTVAS” belongs “low polyreactivity”; to “QVQLVESGGGLVQAGGSLRLSCAASGRIFQEYAMGWYRQAPGKERELVAAISSGGGSTYYADSVKGRFTISRDNAKNTVYLQMNSLKPEDTAVYYCAARVYIAYISMDHWGQGTQVTVSS”, “low polyreactivity”; to “QVQHVESGGGLVQAGGSLRLSCAASGSIFRFYAMGWYRQAPGKERELVAAISWSGGSTYYADSVKGRFTISRDNAKNTVYLQMNSLKPEDTAVYYCNTRYYGGFDSWGQGTQVTVSS”, “high polyreactivity”. Regarding “QVQLVESGGGLVQAGGSLRLSCAASGLIFKSYVMGWYRQSPGKERELVAGITGSGGTTYYADSVKGRFTISRDNAKNTVYLQMNSLKPEDTAVYYCAAVFETGAGGFYYTLQYDSWGQGTQVTVSS”, the “polyreactivity (PSR sort gate)” value is “high polyreactivity”. As to “QVQLVESGGGLVQAGGSLRLSCAASGSIFYRNVMGWYRQAPGKERELVAAISSGTSTYYADSVKGRFTISRDNAKHTVYFPMNSLKPEDPAVYDCAADGLHYYGQRWYYGVDYWVQGTQVTVSS”, the “polyreactivity (PSR sort gate)” value was “low polyreactivity”. To “QVQLVESGVGLVQAGGSLRLIWAASGRTFYRNVMGWYRQAPGKERELVAAISWSGGRTYYADSVKGRFTISRDNAKNTVYLQMNSLKPEDTAVYYCAARYRTLDGEVDYWGQGTQVTVSS” belongs “high polyreactivity”; to “QVQLEESGGGLVQAGGSLRLSCAASGIIIKYYAMGWYSQAPGKESELVAAISSSGGKTYYADSVKGRFTISRDNAKNTVYLQMKSLKPEDTGVDYCAAQRYVRYKYDYWGQGTQVTVSS”, “high polyreactivity”. To “QVQLVESGGGLVQAGGSLRLSCAASGSTFRLYAMGGSRQAPGKERELVAAIRSGGNTNNADSVKGRFTISRDNAKHTVYLQMNSLKPEDTAVYYCNGFSGQLPVPNYDYWGQGTQVTVSS” belongs “high polyreactivity”; to “QVQLVESGGGLVQAGGSLRLSCAASGFTFDYNAMGWYRQAPGKERELVAAISASGGSTYYADSVKGRFTISRDTAKNTVYLQMNSLKPEDTAVYYCAAKRFSPQHRYDHWGQGTQVTVSS”, “high polyreactivity”. “QVQLVESGGGLVQAGGSLRLSCAASGSIFTPNAMGWYRQAPGKERELVAAISSSSDRTYYADSVKGRFTISRDNAKNTVYLQLNSLKPEDTAVYYCAAYAQKRYYWGQGTQVTVSS”: the “polyreactivity (PSR sort gate)” value is given as “high polyreactivity”. Take “QVQLVESGGGLVQAGGSLRLSCAASGGTFSYYAMGWYRQAPGKERELVAAISGNGDTTYYADSVKGRFTSSRDNAKNTVYLQMNSLKPEYTAVYYCNVYVSAGEEVEYWGQGTQVTVSS”: the “polyreactivity (PSR sort gate)” value was “low polyreactivity”. As to “QVQLVESGGVVVQAGGSLRLRCAASGITIPRYPMGWYRQAPGKERELVAAISPSGGGTYYADSVKGRFTISRDNAKNTVYLQMNSLKPEDTAVYYCAARYLGYLLSGYPPYDYWVQGTQVTVSS”, the “polyreactivity (PSR sort gate)” value is “high polyreactivity”. On to “QVQLVESGGGLVQAGGSLRLICAASGFTFSKYGMVWYRQAPGKERELVAAISGSGGNTYYADSVKGRFTISRDNAKNTVYLLINSLKPEDTAVYYCNATWELLSYYYLFWGYDYWGQGTQVTVSS”, for which the “polyreactivity (PSR sort gate)” value is “low polyreactivity”.

In the case of “QVQLVESGGGLVQAGGSLRLSCAASGRTFGYYAMGWYRQAPGKERELVAGIRSSGGSTYYADSVKGRFTISRDNAKNTVYLQMNSLKPEDTAVYYCAARLRSYHYRYGYDYWGQGTQVTVSS”, the “polyreactivity (PSR sort gate)” value is recorded as “high polyreactivity”. The value for “QVQLVESGGGLVQAGGSLRLSCAASGRTFIYYAMGWYRQAPGKERELVAGITYSVGSTYYADSVKGRFTISRDNEKNTVYLQMNSLKPEDTAVYFCAADATFESDWGQGTQVTVSS” was “low polyreactivity”. On to “QVQLVESGGGLVQAGGSLRLSCAASGVIFGPNAMGWYRQAPGKERELVAAIRWSGSRTYYADSVKGRFTISRDNAKNTVYLQMNSLKPEDTAVYYCAATGGLNGALSRLEYWGQGTQVTVSS”, for which the “polyreactivity (PSR sort gate)” value is on record as “high polyreactivity”. To “QVQLVESGGGLVQAGGSLRLSCAASGSTFSLYAMGWYRQAPGIERELVAAIRSSGSTKYADSVKGRFTISRDNAKNTVYLQINSLKPEETAVYYCAAVSVTRADGRSGYEYWGQGTQVTVSS” belongs “low polyreactivity”. For “QVQLVESGGGLVQAGGSLRLSCAASGFTFPYYAMGWYRPAPGKERELVAAISRNGGSTYYADSVKGRFTISRDNAKNTVYFQMNRLKPEDTAVYYCNKKWLGWADPSLDKRYDYWGQGTQVTVSS”, the “polyreactivity (PSR sort gate)” value was “high polyreactivity”. To “QVQLVESGGGLVQAGGSLRLSCAASGSIFGYYAMGWYRQAPGKEREFVAAISSRKDSTYADSVKGRFTISRDNAKNTVYLQMNSLKPEDTAVYYCAASTFRLTYAGHSYDYWGQGTQVTVSS” belongs “high polyreactivity”; to “QVQHVESGGGLVQAGGSLRLSCAASGSIFRRNAMGRYRQAPGKVRELVAGISGGGSTYYADSVKGRFTISRDNAKNTVYLQMNSMKPEDTAVYYCATDKHYRSAGFDYWGQGTQVTVSS”, “low polyreactivity”. For “QVQLVESGGGLVQAGGSLRLSCAASGSTFDAYAMGWYRQAPGKERELVAAITWSGGSTYYADSVKGRFTISRDNAKNTVYLEMNSLKPEDTAVYYCAADKLGELDYWGQGTQVTVSS”, the “polyreactivity (PSR sort gate)” value is given as “low polyreactivity”. With “QVQLVESGGGLVQAGGSLRLSCAASGSTFVVNAMGWYRQAPGKERELVAAISWSGASTYYADSVKGRFTISRDNAKNTVYLQMKSLIQEDTAVYYCAADYSHYFYYYPSFVKFDYWGQGTQVTVSS”, the “polyreactivity (PSR sort gate)” value is on record as “high polyreactivity”. To “QVQLVESGGGLVQAGGSLRISCAASGRIFSYNAMGWYRQAPGKERELVAAITTGGSTYYADSVKGRFTISRDNAKNTVYLQMNSLKPEDTAVYYSIKLGYYYDRRYDYWGQGTQVNVSS” belongs “high polyreactivity”.

Regarding “QVQLVESGGGLVQAGGSLRLSCAASGSIFGGYVMGWYRQAPGKERELVAAITSGGSTYYADSVKGRFTISRDNAKNTVYLQMNSLKPEDTAVYYCNADPYTYSYGMYYWGHGTQVTVSS”, the “polyreactivity (PSR sort gate)” value was “low polyreactivity”. To “QVQLVESGGGLVQAGGSLRLSCASSGYTFTVYAKGWYRQAPGKERELVAAITWNGASTYYADSVKGRFTISRDNAKNTVYLQMNSLKPEDTAVYYCADPYYFYRDRYRLDYWGQGTQVTVSS” belongs “low polyreactivity”. To “QVQLVESGGGLVQAGGSLRLSCAASGIIFYVNAMGWYRPAPGKDRELVAAITFGGDSTYYADSVKGRFTITRDNAKNTVYLQMNSLKQEDTAVYYWAAEGLSLGGYYYWGQGTQVTVSS” belongs “low polyreactivity”. To “QVQLVESGGGLVQAGGRLRLSCAASGFTFSGYGMGWSRQAPGKERELVAAISNSGGRTYADSVKGRFTISRDTAQKTVYLQMNSLKPEDTAVYSCAKKPGGFSQASRVDYDYWGQGTQVTVSS” belongs “low polyreactivity”; to “QVQLVESGGGIVQAGGSLRLSCAASGLTFRRNAMGWSRQAPGKERELVAAISSGGVRTYYADSVKGRFTISRDNAKNTVYLQMNSLKPEDTAVYYCAKDDLLVVRNVWFDYWGQGTQVTVSS”, “low polyreactivity”; to “QVQLVESGGGLVQAGGSLRLSCDASGGIFFLYAMGWYRQAPGKERELVAAITNDGRTYYADSVKGRFTISRDNAKYTVYLQMNSLKPEDTAVYYCDAAALISVGDLVIYEDDYWGQGTQVTVSS”, “low polyreactivity”. For “QVQLEESGGGLVQAGGSLRLSCAASGRTFYRYAMGWYRQAPGKERELVAAITWSGGSTYYADSVKGRFTTSRDNAKNTVYLQMNSLKPEDTAVYYCARRLYPYRPTAYDYWGQGTQVTVSS”, the “polyreactivity (PSR sort gate)” value was “low polyreactivity”. Turning to “QVQLVESGGGLVQAGGSLRLSCAASGYIFEVNAMGWYRQAPGKERELVATIDTSSGSTNYADSVKGRFTISRDNAKNTVYLQMNSLKPEDTAVYYCAADDETVFLQDDYWGQGTQVTVSS”, the “polyreactivity (PSR sort gate)” value is recorded as “low polyreactivity”. The value for “QVQLVESGGGLVQAGGSLRLTCAASGSTFKYYAMGWYRQAPGKERELVAAIDWNGGRTYYADSVKGRFTISRDNAKNTVYLQMNSLKPEDTAVYYCAKLGRAAQGNYYWGQGTQVTVSS” was “high polyreactivity”. “QVQLVESGGGLVQAGGSLRLSCAASGFIFVDYAMGWYRQAPGKERELVASIDRSDGSTYYADSVKGRFTISRDNAKKTVYLQMNSLKPEDTAVYYCAADDPLYSISTGDYWGQGTQVTVSL”: the “polyreactivity (PSR sort gate)” value is on record as “low polyreactivity”. On to “QVQLVESGGGLVQAGGSLRLSCAASGSTFWYYAMGWYRQAPGKERELVAAITSVDSTYYADSVKGRFTISRDNANNTVYLQMNSLKPEDTAVYYCAADLPWEDGYYFYSGYTEYDYWGQGTQVTVSS”, for which the “polyreactivity (PSR sort gate)” value is on record as “low polyreactivity”. Consider “QVQHVESGGGLVQAGGSLRLSCAASGRIFRFNAMGWYRKAPGKERELVAAISWRSSNTYYADSVKGRFTISRDNAKNSVYLQMNSLKPEDTAVYYCAASTASSKYRYEYWGQGTQVTVSS”, for which the “polyreactivity (PSR sort gate)” value was “high polyreactivity”.

Regarding “QVQLEESVGGLVQAGGSLRLSCAASVFIFYKKNMGLYRQAPGKERELVAAITDGDHTNYADSVKGRFTISRDNAKNTVYLQMNSLKPEDTAVYYCAADYAWNYAFGYWGQGTQVTVSS”, the “polyreactivity (PSR sort gate)” value is reported as “low polyreactivity”. Consider “QVQLVESGGGLVQAGGSLRLSCAASGGTFYEYVMGWDRQAPGKERELVAAISWGDGSTYYADSVKGRFTISRDNAKNTVYLQMNSLKPEDTAVYYCAADHTVFTYEYWGQGTQVTVSS”, for which the “polyreactivity (PSR sort gate)” value was “high polyreactivity”. For “QVQLVESGGGLVQAGGSLRLSCADSGFTFSWYAMGWYRQAPGKERELVAAISLRGGSTYYADSVKGRFTISRENAKNTVYFQMNSLKPEDTAVYYCAADSFRWRYKNFYYWGQGTQVTLSS”, the “polyreactivity (PSR sort gate)” value is “high polyreactivity”. For “QVQLVESAGGLVQAGGSLRLSCAASGRTFGKYAMGWYRQAPGKERELVAAITGGGGTKYADSVKGRFTISRDNAKNTVYLQKNSLKPEDTAVYYCAAASGSRRHGYWGQGTQVTVSS”, the “polyreactivity (PSR sort gate)” value is “high polyreactivity”.
